What was measured:
[1] = molecular target: T1, Z-L-tyrosine-L-lysine-L-arginine-p-nitroanilide
T1 chain: YKR

[2] = molecular target: fusion protein (peptide portion)-(Lys-Arg)-(h-GH), P01241
fusion protein (peptide portion)-(Lys-Arg)-(h-GH), P01241, sequence (P01241 whole entry, looked up, the tested form may be a part): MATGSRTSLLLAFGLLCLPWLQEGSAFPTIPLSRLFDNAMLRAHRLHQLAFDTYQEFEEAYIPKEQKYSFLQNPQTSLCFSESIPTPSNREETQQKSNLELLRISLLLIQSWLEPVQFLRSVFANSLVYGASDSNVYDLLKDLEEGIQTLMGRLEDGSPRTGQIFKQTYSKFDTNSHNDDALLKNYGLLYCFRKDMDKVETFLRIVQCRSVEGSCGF

Protein | KM [1] [µM] | kcat [1] [min⁻¹] | kcat/KM (µM^-1 × min^-1) [1] | specific activity [1] | reaction yield of hydrolysis (RP-HPLC) [2] | specificity of the hydrolysis (NH2-terminal sequence of the reaction product) [2]
ss-Kex2-C613 (soluble secreted Kex2 endoprotease of Saccharomyces cerevisiae truncated at amino acid 613) (protein) APPMDSSLLPVKEAEDKLSINDPLFERQWHLVNPSFPGSDINVLDLWYNNITGAGVVAAIVDDGLDYENEDLKDNFCAEGSWDFNDNTNLPKPRLSDDYHGTRCAGEIAAKKGNNFCGVGVGYNAKISGIRILSGDITTEDEAASLIYGLDVNDIYSCSWGPADDGRHLQGPSDLVKKALVKGVTEGRDSKGAIYVFASGNGGTRGDNCNYDGYTNSIYSITIGAIDHKDLHPPYSEGCSAVMAVTYSSGSGEYIHSSDINGRCSNSHGGTSAAAPLAAGVYTLLLEANPNLTWRDVQYLSILSAVGLEKNADGDWRDSAMGKKYSHRYGFGKIDAHKLIEMSKTWENVNAQTWFYLPTLYVSQSTNSTEETLESVITISEKSLQDANFKRIEHVTVTVDIDTEIRGTTTVDLISPAGIISNLGVVRPRDVSSEGFKDWTFMSVAHWGENGVGDWKIKVKTTENGHRIDFHSWRLKLFGESIDSSKTETFVFGNDKEEVE | 56.8 | 137000 | 12400 |  |  | 
ss-Kex1-C600 (soluble secreted Kex1 endoprotease of Kluyveromyces lactis truncated at amino acid 600) (protein) LPIGDSSMEQIQNARILFNISDPLFDQQWHLINPNYPGNDVNVTGLWKENITGYGVVAALVDDGLDYENEDLKDNFCVEGSWDFNDNNPLPKPRLKDDYHGTRCAGEIAAFRNDICGVGVAYNSKVSGIRILSGQITAEDEAASLIYGLDVNDIYSCSWGPSDDGKTMQAPDTLVKKAIIKGVTEGRDAKGALYVFASGNGGMFGDSCNFDGYTNSIFSITVGAIDWKGLHPPYSESCSAVMVVTYSSGSGNYIKTTDLDEKCSNTHGGTSAAAPLAAGIYTLVLEANPNLTWRDVQYLSILSSEEINPHDGKWQDTAMGKRYSHTYGFGKLDAYNIVHMAKSWINVNPQGWLYLPTIVEKQSISNSDEVIESTVSVSAEEFKQNNLKRLEHVTVTVDIDAPYRGHVLVDLISPDGVTSTLATARRLDKNRYGFQNWTFMSVAHWGSSGVGSWKLKVKSTHDNEIVTLKSWRLKMFGETIDAKKAKVISYGNDKEDAE | 61.4 | 184000 | 3000 | a specific activity of approximately 100 U/mg | a reaction yield higher than 95% | gave the expected sequence for h-GH

Source: patent publication US20030186258
